The source of these data is article PMC5462737.

The target in experiment [1] is F1Fo ATP synthase from E. coli, labeled with ATTO 594 (E. coli) (UniProt P0ABB4).
The target is the same in experiment [2]. This is another data set of the same source.

UniProt P0ABB4, sequence (P0ABB4 whole entry, looked up): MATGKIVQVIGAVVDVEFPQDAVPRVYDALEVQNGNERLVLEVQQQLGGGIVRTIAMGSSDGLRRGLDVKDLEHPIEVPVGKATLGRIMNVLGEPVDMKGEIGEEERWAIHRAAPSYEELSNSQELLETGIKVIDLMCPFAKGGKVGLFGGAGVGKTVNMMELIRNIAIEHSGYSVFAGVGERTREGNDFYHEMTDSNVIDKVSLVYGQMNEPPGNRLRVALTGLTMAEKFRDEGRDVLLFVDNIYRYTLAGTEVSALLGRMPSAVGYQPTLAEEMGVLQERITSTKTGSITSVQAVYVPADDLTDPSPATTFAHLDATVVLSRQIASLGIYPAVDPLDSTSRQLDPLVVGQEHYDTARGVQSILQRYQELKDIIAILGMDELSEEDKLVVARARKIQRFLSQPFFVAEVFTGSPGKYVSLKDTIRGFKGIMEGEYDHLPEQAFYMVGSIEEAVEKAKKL

Substance “cytochrome bo3 (ubiquinol oxidase) from E. coli, labeled with ATTO 647N (complex)” registered a coupled activity (ATP-synthesis rate driven by proton pumping of cyt. bo3; luciferin/luciferase luminescence) in 100 nm DOPC vesicles, relative to unlabeled proteins in experiment [1] of 5 fold. In addition, the normalized ATP-synthesis rate in 100 nm DOPC:DOPG vesicles, 0-40% DOPG, relative to 100% DOPC; value at 60% DOPC in experiment [2] amounted to 60%. Regarding “cytochrome bo3 (ubiquinol oxidase) from E. coli, labeled with Abberior STAR 635 (complex)”, in experiment [1], the coupled activity (ATP-synthesis rate driven by proton pumping of cyt. bo3) in 100 nm DOPC vesicles, increase relative to unlabeled proteins was < 2 fold.
